Results taken from patent publication US20090149343A1, “HISTONES” (priority 2006, published 2009).

Target: T1, micro-array bound histone H3 peptides (Homo sapiens, UniProt P68431)
T1 construct: 48 discrete histone H3 peptides containing a wide range of histone modifications at defined residues; made in house; host or cells: peptides by chemical solid phase synthesis
Assay: Histone peptide microarray-based methylation assay (SET 7/9)
Format: biochemical
Details: 12 hrs, 30° C. methylation buffer; 100 uM, 70 ul SET 7/9; FIG. 15
Method: FIG. 15. SET 7/9 dependent methylation of micro-array bound histone peptides. Microarray slides containing duplicate arrays (dashed boxes) of 48 discrete histone H3 peptides containing a wide range of histone modifications at defined residues. These were incubated with the methyl-transferase enzyme SET7/9 (Bottom panel) or a buffer containing no enzyme (Control, top panel), and subsequently probed with an anti-H3K4me1 antibody.
Methylation assays were performed using the recombinant human histone methyl-transferase SET 7/9 under standard methylation conditions. Assays on the microarrays of the invention were performed under coverslips, enabling small volumes of reagent usage per assay (70 μl). Enzyme-mediated methylation is detected by a histone methyl specific antibody (i.e. anti-histone H3 mono-methyl K4) by standard Western blotting conditions.
Importantly, reproducible patterns of modification are generated on the different peptides (the dashed boxes contain duplicate arrays of 48 epitope spots) allowing users to analyse the effects of defined modifications on methyl transfer by the enzyme.

B1: SET 7/9: recombinant human histone methyl-transferase SET 7/9 (protein)
chain: MDSDDEMVEEAVEGHLDDDGLPHGFCTVTYSSTDRFEGNFVHGEKNGRGKFFFFDGSTLEGYYVDDALQGQGVYTYEDGGVLQGTYVDGELNGPAQEYDTDGRLIFKGQYKDNIRHGVCWIYYPDGGSLVGEVNEDGEMTGEKIAYVYPDERTALYGKFIDGEMIEGKLATLMSTEEGRPHFELMPGNSVYHFDKSTSSCISTNALLPDPYESERVYVAESLISSAGEGLFSKVAVGPNTVMSFYNGVRITHQEVDSRDWALNGNTLSLDEETVIDVPEPYNHVSKYCASLGHKANHSFTPNCIYDMFVHPRFGPIKCIRTLRAVEADEELTVAYGYDHSPPGKSGPEAPEWYQVELKAFQATQQK
enzyme-mediated methylation of array peptides detected by anti-histone H3 mono-methyl K4 antibody: specific enzymatic methyl transferase activity occurs
